The term Kd denotes a measure of binding affinity in units of concentration. Low values mean higher affinity, high ones lower affinity.

The target in the experiment is T1, human GRP78, N-His-tagged (human, UniProt P11021 19-654).
T1 construct: GRP78, human; 6-His tag at the N-terminus; also called N-His-tagged GRP78; not shown: His6, N-terminal, kept
The experiment in a line: SPR; modified protocol, Biacore X: N-His-tagged GRP78 covalently immobilised (EDC/NHS, Ni2+ orientation, about 5000~6000 RU) on chip NTA; running buffer HBS-P pH 7.4 with 1 mM glycine; L-peptide 6.25-100 uM; both peptides at 50 uM in Fig. 3; fit with BIAevaluation 4.1, default settings. The settings on record: both partners purified. (In general: In SPR one partner is held on a chip, and binding of the other changes the refractive index at the surface.)

T1 sequence (P11021 19-654): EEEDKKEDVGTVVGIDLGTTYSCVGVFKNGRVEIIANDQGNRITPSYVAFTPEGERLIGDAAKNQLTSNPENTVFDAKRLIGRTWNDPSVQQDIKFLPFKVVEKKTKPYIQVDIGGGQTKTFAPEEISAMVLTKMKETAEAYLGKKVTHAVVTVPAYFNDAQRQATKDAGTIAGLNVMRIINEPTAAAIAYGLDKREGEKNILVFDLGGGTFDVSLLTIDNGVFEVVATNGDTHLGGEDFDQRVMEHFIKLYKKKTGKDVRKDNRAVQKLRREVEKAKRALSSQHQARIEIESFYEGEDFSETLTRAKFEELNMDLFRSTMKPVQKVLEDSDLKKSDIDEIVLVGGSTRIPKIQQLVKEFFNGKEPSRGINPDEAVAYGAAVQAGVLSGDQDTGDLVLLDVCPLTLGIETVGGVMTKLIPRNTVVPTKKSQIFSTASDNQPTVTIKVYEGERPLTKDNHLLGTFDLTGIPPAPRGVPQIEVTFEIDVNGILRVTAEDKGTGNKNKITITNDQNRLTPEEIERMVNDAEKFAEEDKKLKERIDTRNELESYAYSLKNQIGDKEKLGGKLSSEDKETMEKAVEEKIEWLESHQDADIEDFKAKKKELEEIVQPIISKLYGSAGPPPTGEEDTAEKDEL

B1: L-peptide (RLLDTNRPLLPY) (peptide)
peptide: RLLDTNRPLLPY
notes: Probably synthetic
As to B1, the Kd was ~10 µM.

The values above are taken from PMC5063806, “Data for peptide-binding assay with oriented immobilization of GRP78 in Biacore” (Data in Brief, 2016).
